Results from PMC10392983, “Allosteric activation or inhibition of PI3Kγ mediated through conformational changes in the p110γ helical domain” (eLife, 2023).
Values joined by “and” are separate entries in the source; they are usually repeats but may differ in a detail not shown here. Identical values can stand only once.

What was measured:
Details in all cases: both partners purified
p110γ-p84 complex = target: T1, p110γ-p84 complex (Homo sapiens p110γ; Mus musculus p84, UniProt P48736;Q3U6Q4); experiment: BLI; His-tagged NB7 (500 nM) immobilised on Anti-Penta-His biosensor; PI3K complexes in solution (dose response 50-1.9 nM; class IA comparison at 50 nM); 600 s association, 1200 s dissociation; 20 mM Tris pH 8.5, 100 mM NaCl, 50 mM ammonium sulfate, 0.1% BSA, 0.02% Tween 20; global fit to a 1:1 model
T1 construct: Homo sapiens p110γ (PIK3CG), full-length; Mus musculus p84 regulatory subunit of PI3Kγ; The purification tag stood on p84 only; also called PI3Kγ p110γ-p84; not shown: His10, N-terminal, cleaved; 2x Strep, N-terminal, cleaved
T1 sequence (P48736 whole entry, chain 1 of 2): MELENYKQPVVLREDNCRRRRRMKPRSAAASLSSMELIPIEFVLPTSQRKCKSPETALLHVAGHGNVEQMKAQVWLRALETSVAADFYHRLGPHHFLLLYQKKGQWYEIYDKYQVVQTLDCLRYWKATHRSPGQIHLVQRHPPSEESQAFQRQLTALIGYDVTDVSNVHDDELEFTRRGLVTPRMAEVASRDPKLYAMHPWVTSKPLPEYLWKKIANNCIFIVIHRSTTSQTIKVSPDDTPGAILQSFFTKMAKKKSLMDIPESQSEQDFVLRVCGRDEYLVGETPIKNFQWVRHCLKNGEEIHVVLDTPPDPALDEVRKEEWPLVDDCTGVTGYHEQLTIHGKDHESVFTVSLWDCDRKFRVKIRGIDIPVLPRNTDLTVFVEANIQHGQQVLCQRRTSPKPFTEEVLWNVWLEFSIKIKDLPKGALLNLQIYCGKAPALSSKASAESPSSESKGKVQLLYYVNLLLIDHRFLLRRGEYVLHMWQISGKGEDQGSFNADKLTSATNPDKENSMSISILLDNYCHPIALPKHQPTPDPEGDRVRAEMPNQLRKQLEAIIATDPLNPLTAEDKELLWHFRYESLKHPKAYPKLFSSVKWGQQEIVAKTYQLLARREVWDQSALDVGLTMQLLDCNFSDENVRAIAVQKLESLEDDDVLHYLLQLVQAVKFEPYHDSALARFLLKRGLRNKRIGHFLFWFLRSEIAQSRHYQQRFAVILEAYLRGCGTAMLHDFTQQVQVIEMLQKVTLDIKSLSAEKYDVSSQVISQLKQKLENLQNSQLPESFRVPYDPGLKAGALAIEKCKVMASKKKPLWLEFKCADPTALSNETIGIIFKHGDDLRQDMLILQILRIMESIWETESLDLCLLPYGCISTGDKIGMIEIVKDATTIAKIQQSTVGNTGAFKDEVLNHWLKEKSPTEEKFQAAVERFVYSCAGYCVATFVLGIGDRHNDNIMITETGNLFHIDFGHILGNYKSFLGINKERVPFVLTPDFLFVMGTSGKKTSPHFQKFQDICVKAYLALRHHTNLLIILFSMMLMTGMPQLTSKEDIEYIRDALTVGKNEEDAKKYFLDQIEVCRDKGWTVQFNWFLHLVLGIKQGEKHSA
T1 sequence (Q3U6Q4 whole entry, chain 2 of 2): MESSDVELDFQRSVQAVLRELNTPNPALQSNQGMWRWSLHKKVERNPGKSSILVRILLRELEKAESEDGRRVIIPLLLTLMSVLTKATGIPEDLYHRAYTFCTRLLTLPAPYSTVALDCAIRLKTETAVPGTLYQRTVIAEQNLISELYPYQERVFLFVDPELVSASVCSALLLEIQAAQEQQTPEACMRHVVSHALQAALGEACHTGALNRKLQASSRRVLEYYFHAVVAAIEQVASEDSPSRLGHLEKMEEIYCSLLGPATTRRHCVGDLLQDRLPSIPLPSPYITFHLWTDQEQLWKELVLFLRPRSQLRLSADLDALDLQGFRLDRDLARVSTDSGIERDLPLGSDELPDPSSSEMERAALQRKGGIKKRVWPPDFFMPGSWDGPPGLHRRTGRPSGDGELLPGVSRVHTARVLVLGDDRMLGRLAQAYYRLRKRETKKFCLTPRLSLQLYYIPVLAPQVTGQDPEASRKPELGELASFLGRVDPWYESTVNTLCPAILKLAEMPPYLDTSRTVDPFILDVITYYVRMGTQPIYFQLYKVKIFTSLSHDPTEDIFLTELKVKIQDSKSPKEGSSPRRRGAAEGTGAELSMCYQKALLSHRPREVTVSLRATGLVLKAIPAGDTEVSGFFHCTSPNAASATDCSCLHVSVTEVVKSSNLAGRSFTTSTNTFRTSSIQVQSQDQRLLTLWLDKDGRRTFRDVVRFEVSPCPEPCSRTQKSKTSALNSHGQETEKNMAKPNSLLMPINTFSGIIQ

p110γ-p101 complex [1] = target: T2, p110γ-p101 complex (Homo sapiens p110γ; Sus scrofa p101, UniProt P48736;PDB); experiment: as above
T2 construct: Homo sapiens p110γ (PIK3CG), full-length; Sus scrofa p101 regulatory subunit of PI3Kγ; The purification tag stood on p101 only; also called PI3Kγ p110γ-p101; not shown: His10, N-terminal, cleaved; 2x Strep, N-terminal, cleaved
T2 sequence (P48736 whole entry, chain 1 of 2): as the sequence (P48736 whole entry, chain 1 of 2) above
T2 sequence (O02696 whole entry, chain 2 of 2, further chain): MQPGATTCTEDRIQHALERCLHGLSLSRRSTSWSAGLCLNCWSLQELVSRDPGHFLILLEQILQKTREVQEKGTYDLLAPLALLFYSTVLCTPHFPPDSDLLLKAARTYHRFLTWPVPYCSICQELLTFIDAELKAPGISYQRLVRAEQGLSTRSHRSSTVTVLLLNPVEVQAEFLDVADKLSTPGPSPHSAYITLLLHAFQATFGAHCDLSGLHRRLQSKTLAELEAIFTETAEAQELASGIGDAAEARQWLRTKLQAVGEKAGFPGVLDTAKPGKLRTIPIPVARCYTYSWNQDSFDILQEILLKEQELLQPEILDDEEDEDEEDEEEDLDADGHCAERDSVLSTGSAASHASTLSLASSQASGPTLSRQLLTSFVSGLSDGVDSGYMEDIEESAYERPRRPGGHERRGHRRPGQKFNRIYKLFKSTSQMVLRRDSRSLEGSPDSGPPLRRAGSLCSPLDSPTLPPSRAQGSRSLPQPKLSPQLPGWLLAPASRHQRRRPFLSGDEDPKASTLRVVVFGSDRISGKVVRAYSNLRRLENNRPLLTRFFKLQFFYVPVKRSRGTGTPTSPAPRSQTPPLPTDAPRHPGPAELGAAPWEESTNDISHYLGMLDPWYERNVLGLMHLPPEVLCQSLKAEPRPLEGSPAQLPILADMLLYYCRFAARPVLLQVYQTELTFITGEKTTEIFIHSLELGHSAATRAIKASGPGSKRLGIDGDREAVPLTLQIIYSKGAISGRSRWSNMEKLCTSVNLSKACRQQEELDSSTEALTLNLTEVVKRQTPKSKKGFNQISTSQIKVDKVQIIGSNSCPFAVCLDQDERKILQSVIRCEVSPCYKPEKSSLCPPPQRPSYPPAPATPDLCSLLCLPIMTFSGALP

p110α-p85 complex = target: T3, p110α-p85 complex (Homo sapiens (assumed), UniProt P42336;O00459); experiment: as above
T3 construct: p110α catalytic subunit of class IA PI3K; plasmid as previously described; p85 regulatory subunit; the legend says only p85; also called PI3Kα

p110β-p85 complex = target: T4, p110β-p85 complex (Homo sapiens (assumed), UniProt P42338;O00459); experiment: as above
T4 construct: p110β catalytic subunit of class IA PI3K; plasmid as previously described; p85 regulatory subunit; the legend says only p85; also called PI3Kβ

p110δ-p85 complex = target: T5, p110δ-p85 complex (Homo sapiens (assumed), UniProt O00329;O00459); experiment: as above
T5 construct: p110δ catalytic subunit of class IA PI3K; plasmid as previously described; p85 regulatory subunit; the legend says only p85; also called PI3Kδ

p110γ-p101 complex [2] = target: T6, p110γ-p101 complex (Homo sapiens p110γ; Sus scrofa p101, UniProt P48736;PDB); experiment: BLI; His-NB7 (500 nM) immobilised on Anti-Penta-His (HIS1K) biosensor, dipped into p110γ, p110γ-p84 or p110γ-p101 (50-1.9 nM); association 600 s, dissociation 1200 s; Octet buffer 20 mM Tris pH 8.5, 100 mM NaCl, 50 mM ammonium sulfate, 0.1% BSA, 0.02% Tween 20; 1:1 model; the sheet gives one set of constants for each analyte concentration (column Conc. (nM))
T6 construct: p110γ, Homo sapiens, from plasmid pMultiBac-hsp110γ-ssp101; p101 regulatory subunit, Sus scrofa, from plasmid pMultiBac-hsp110γ-ssp101; The purification tag stood on the N-terminus of p101 and was removed by TEV protease; also called p110gp101; not shown: 10x histidine, N-terminal, cleaved; 2x strep, N-terminal, cleaved
T6 sequence (P48736 whole entry, chain 1 of 2): as the sequence (P48736 whole entry, chain 1 of 2) above
T6 sequence (O02696 whole entry, chain 2 of 2, further chain): as the sequence (O02696 whole entry, chain 2 of 2, further chain) above

Binder | Kd (p110γ-p84 complex) [nM] | Kd (p110γ-p101 complex [1]) [nM] | binding result (p110α-p85 complex) | binding result (p110β-p85 complex) | binding result (p110δ-p85 complex) | kon (p110γ-p101 complex [2])
Nanobody NB7-PIK3CG (VHH, the nanobody chain of PDB 8DP0 (deposited here); Expressed from a pMESy4 vector; also called His-NB7; nanobody 7; source: E. coli WK6 periplasm, purified (HisTrap, Superdex 75); not shown: His6, C-terminal, kept) VHH: QVQLVESGGGLVQPGGSLRLSCAASGSIFSINAMGWYRQAPGKQRELVAHITSGGSTNYADSVKGRFTISRDNAKNTVYLQMNSLKPEDTAVYYCNEAGDPFLGSTWNGPPAFGSWGQGTQVTVSS | ~2 | ~2 | no binding (tested: 50 nM) | no binding (tested: 50 nM) | no binding (tested: 50 nM) | 
Nanobody NB7-PIK3CG (VHH, Expressed from a pMESy4 vector; first described in Rathinaswamy et al., 2021b; also called His-NB7; nanobody 7; source: periplasm of WK6 E. coli, purified (HisTrap, Superdex 75); not shown: His6, C-terminal, kept) VHH: QVQLVESGGGLVQPGGSLRLSCAASGSIFSINAMGWYRQAPGKQRELVAHITSGGSTNYADSVKGRFTISRDNAKNTVYLQMNSLKPEDTAVYYCNEAGDPFLGSTWNGPPAFGSWGQGTQVTVSS |  |  |  |  |  | 105000 M⁻¹ s⁻¹ and 111000 M⁻¹ s⁻¹ and 50200 M⁻¹ s⁻¹
